Experimental findings from patent US20200308270A1 (Zymeworks, published 2020) are described below.

The assay addresses T1, recombinant human HER3 (human, UniProt P21860 20-643).
T1 construct: Bought reagent
The experiment in a line: SPR (Biacore T200), HER3 captured via anti-His, Fab analyte.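 Note: single cycle kinetics with five Fab concentrations, referenced against a blank flow cell and mock-buffer injections, sensorgrams fit to a 1:1 binding model.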 On the technique in general: SPR reads the build-up and loss of mass on a sensor chip optically.

Protocol: HER3 affinity determination in Fabs was carried out as follows. The screening of Fabs (preparative SEC purified) for binding to HER3 antigen occurred in two steps: an indirect capture of HER3 onto the anti-His antibody, followed by the injection of five concentrations of Fabs, for kinetic analysis using single cycle kinetics. […] HER3 was injected at 4-8 μg/mL over the active flow cell for 60 s at a flow rate of 10 μL/min. […] HER3 was not captured on the reference (blank) flow cell. […] The captured HER3 surfaces were regenerated by 10 mM glycine pH 1.5 for 120 s at 30 μL/min to prepare the surfaces for the next injection cycle. At least two mock-buffer injections were performed for each analyte injection and used for referencing. The resulting single cycle kinetics sensorgrams were analyzed using Biacore T200 BiaEvaluation software version 3.0 and fit to the 1:1 binding model.

B1: H3 designed Vlambda-Ckappa chimeric Fab, design 18 (E83F_D85T_T105E) (Fab, name in Kabat numbering, V domains shown)
VH: QVQLQESGGGLVKPGGSLRLSCAASGFTFSSYWMSWVRQAPGKGLEWVANINRDGSASYYVDSVKGRFTISRDDAKNSLYLQMNSLRAEDTAVYYCARDRGVGYFDLWGRGTLVTVSS
VL: QSALTQPASVSGSPGQSITISCTGTSSDVGGYNFVSWYQQHPGKAPKLMIYDVSDRPSGVSDRFSGSKSGNTASLIISGLQADDFATYYCSSYGSSSTHVIFGGGTKVEVLR
Regarding B1, the Kd was determined as 90.5 nM.

B2: H3 designed Vlambda-Ckappa chimeric Fab, design 14 (E83F) (Fab, name in Kabat numbering, V domains shown)
VH: QVQLQESGGGLVKPGGSLRLSCAASGFTFSSYWMSWVRQAPGKGLEWVANINRDGSASYYVDSVKGRFTISRDDAKNSLYLQMNSLRAEDTAVYYCARDRGVGYFDLWGRGTLVTVSS
VL: QSALTQPASVSGSPGQSITISCTGTSSDVGGYNFVSWYQQHPGKAPKLMIYDVSDRPSGVSDRFSGSKSGNTASLIISGLQADDFADYYCSSYGSSSTHVIFGGGTKVTVLR
For B2, the Kd came out at 92.6 nM.

B3: H3 designed Vlambda-Ckappa chimeric Fab, design 20 (E83F_D85T_T105E_V106I) (Fab, name in Kabat numbering, V domains shown)
VH: QVQLQESGGGLVKPGGSLRLSCAASGFTFSSYWMSWVRQAPGKGLEWVANINRDGSASYYVDSVKGRFTISRDDAKNSLYLQMNSLRAEDTAVYYCARDRGVGYFDLWGRGTLVTVSS
VL: QSALTQPASVSGSPGQSITISCTGTSSDVGGYNFVSWYQQHPGKAPKLMIYDVSDRPSGVSDRFSGSKSGNTASLIISGLQADDFATYYCSSYGSSSTHVIFGGGTKVEILR
On to B3, for which the dissociation constant (Kd) was 85.8 nM.

B4: H3 designed Vlambda-Ckappa chimeric Fab, design 17 (E83F_D85T) (Fab, name in Kabat numbering, V domains shown)
VH: QVQLQESGGGLVKPGGSLRLSCAASGFTFSSYWMSWVRQAPGKGLEWVANINRDGSASYYVDSVKGRFTISRDDAKNSLYLQMNSLRAEDTAVYYCARDRGVGYFDLWGRGTLVTVSS
VL: QSALTQPASVSGSPGQSITISCTGTSSDVGGYNFVSWYQQHPGKAPKLMIYDVSDRPSGVSDRFSGSKSGNTASLIISGLQADDFATYYCSSYGSSSTHVIFGGGTKVTVLR
For B4, the Kd came to 83.1 nM.

B5: H3 designed Vlambda-Ckappa chimeric Fab, design 32 (E83I_D85T) (Fab, name in Kabat numbering, V domains shown)
VH: QVQLQESGGGLVKPGGSLRLSCAASGFTFSSYWMSWVRQAPGKGLEWVANINRDGSASYYVDSVKGRFTISRDDAKNSLYLQMNSLRAEDTAVYYCARDRGVGYFDLWGRGTLVTVSS
VL: QSALTQPASVSGSPGQSITISCTGTSSDVGGYNFVSWYQQHPGKAPKLMIYDVSDRPSGVSDRFSGSKSGNTASLIISGLQADDIATYYCSSYGSSSTHVIFGGGTKVTVLR
Regarding B5, the Kd worked out at 83.8 nM.

B6: H3 designed Vlambda-Ckappa chimeric Fab, design 31 (E83I_T105E) (Fab, name in Kabat numbering, V domains shown)
VH: QVQLQESGGGLVKPGGSLRLSCAASGFTFSSYWMSWVRQAPGKGLEWVANINRDGSASYYVDSVKGRFTISRDDAKNSLYLQMNSLRAEDTAVYYCARDRGVGYFDLWGRGTLVTVSS
VL: QSALTQPASVSGSPGQSITISCTGTSSDVGGYNFVSWYQQHPGKAPKLMIYDVSDRPSGVSDRFSGSKSGNTASLIISGLQADDIADYYCSSYGSSSTHVIFGGGTKVEVLR
Regarding B6, the Kd was 82.7 nM.

B7: H3 designed Vlambda-Ckappa chimeric Fab, design 16 (E83F_V106I) (Fab, name in Kabat numbering, V domains shown)
VH: QVQLQESGGGLVKPGGSLRLSCAASGFTFSSYWMSWVRQAPGKGLEWVANINRDGSASYYVDSVKGRFTISRDDAKNSLYLQMNSLRAEDTAVYYCARDRGVGYFDLWGRGTLVTVSS
VL: QSALTQPASVSGSPGQSITISCTGTSSDVGGYNFVSWYQQHPGKAPKLMIYDVSDRPSGVSDRFSGSKSGNTASLIISGLQADDFADYYCSSYGSSSTHVIFGGGTKVTILR
As for B7, the equilibrium dissociation constant (Kd) came to 88.5 nM.

B8: H3 Vlambda-Ckappa chimeric Fab (Fab, V domains shown)
VH: QVQLQESGGGLVKPGGSLRLSCAASGFTFSSYWMSWVRQAPGKGLEWVANINRDGSASYYVDSVKGRFTISRDDAKNSLYLQMNSLRAEDTAVYYCARDRGVGYFDLWGRGTLVTVSS
VL: QSALTQPASVSGSPGQSITISCTGTSSDVGGYNFVSWYQQHPGKAPKLMIYDVSDRPSGVSDRFSGSKSGNTASLIISGLQADDEADYYCSSYGSSSTHVIFGGGTKVTVLR
notes: Parent chimeric Fab without stabilizing substitutions; also called chimera; VL-CK chimeric Fab
With B8, the Kd came to 92.7 nM.

B9: H3 designed Vlambda-Ckappa chimeric Fab, design 21 (E83F_D85V_T105E_V106I) (Fab, name in Kabat numbering, V domains shown)
VH: QVQLQESGGGLVKPGGSLRLSCAASGFTFSSYWMSWVRQAPGKGLEWVANINRDGSASYYVDSVKGRFTISRDDAKNSLYLQMNSLRAEDTAVYYCARDRGVGYFDLWGRGTLVTVSS
VL: QSALTQPASVSGSPGQSITISCTGTSSDVGGYNFVSWYQQHPGKAPKLMIYDVSDRPSGVSDRFSGSKSGNTASLIISGLQADDFAVYYCSSYGSSSTHVIFGGGTKVEILR
Take B9: the Kd came to 82.6 nM.

B10: H3 designed Vlambda-Ckappa chimeric Fab, design 19 (E83F_D85V_T105E) (Fab, name in Kabat numbering, V domains shown)
VH: QVQLQESGGGLVKPGGSLRLSCAASGFTFSSYWMSWVRQAPGKGLEWVANINRDGSASYYVDSVKGRFTISRDDAKNSLYLQMNSLRAEDTAVYYCARDRGVGYFDLWGRGTLVTVSS
VL: QSALTQPASVSGSPGQSITISCTGTSSDVGGYNFVSWYQQHPGKAPKLMIYDVSDRPSGVSDRFSGSKSGNTASLIISGLQADDFAVYYCSSYGSSSTHVIFGGGTKVEVLR
Regarding B10, the Kd amounted to 83 nM.

B11: H3 designed Vlambda-Ckappa chimeric Fab, design 24 (E83V_T105E) (Fab, name in Kabat numbering, V domains shown)
VH: QVQLQESGGGLVKPGGSLRLSCAASGFTFSSYWMSWVRQAPGKGLEWVANINRDGSASYYVDSVKGRFTISRDDAKNSLYLQMNSLRAEDTAVYYCARDRGVGYFDLWGRGTLVTVSS
VL: QSALTQPASVSGSPGQSITISCTGTSSDVGGYNFVSWYQQHPGKAPKLMIYDVSDRPSGVSDRFSGSKSGNTASLIISGLQADDVADYYCSSYGSSSTHVIFGGGTKVEVLR
On to B11, for which the Kd was 102 nM.

B12: H3 designed Vlambda-Ckappa chimeric Fab, design 25 (E83V_V106I) (Fab, name in Kabat numbering, V domains shown)
VH: QVQLQESGGGLVKPGGSLRLSCAASGFTFSSYWMSWVRQAPGKGLEWVANINRDGSASYYVDSVKGRFTISRDDAKNSLYLQMNSLRAEDTAVYYCARDRGVGYFDLWGRGTLVTVSS
VL: QSALTQPASVSGSPGQSITISCTGTSSDVGGYNFVSWYQQHPGKAPKLMIYDVSDRPSGVSDRFSGSKSGNTASLIISGLQADDVADYYCSSYGSSSTHVIFGGGTKVTILR
In the case of B12, the Kd came to 80.6 nM.

B13: H3 designed Vlambda-Ckappa chimeric Fab, design 26 (E83V_D85T) (Fab, name in Kabat numbering, V domains shown)
VH: QVQLQESGGGLVKPGGSLRLSCAASGFTFSSYWMSWVRQAPGKGLEWVANINRDGSASYYVDSVKGRFTISRDDAKNSLYLQMNSLRAEDTAVYYCARDRGVGYFDLWGRGTLVTVSS
VL: QSALTQPASVSGSPGQSITISCTGTSSDVGGYNFVSWYQQHPGKAPKLMIYDVSDRPSGVSDRFSGSKSGNTASLIISGLQADDVATYYCSSYGSSSTHVIFGGGTKVTVLR
For the molecule B13, the Kd worked out at 82.1 nM.

B14: H3 designed Vlambda-Ckappa chimeric Fab, design 30 (E83I) (Fab, name in Kabat numbering, V domains shown)
VH: QVQLQESGGGLVKPGGSLRLSCAASGFTFSSYWMSWVRQAPGKGLEWVANINRDGSASYYVDSVKGRFTISRDDAKNSLYLQMNSLRAEDTAVYYCARDRGVGYFDLWGRGTLVTVSS
VL: QSALTQPASVSGSPGQSITISCTGTSSDVGGYNFVSWYQQHPGKAPKLMIYDVSDRPSGVSDRFSGSKSGNTASLIISGLQADDIADYYCSSYGSSSTHVIFGGGTKVTVLR
B14: the Kd was found to be 95.1 nM.

B15: H3 designed Vlambda-Ckappa chimeric Fab, design 22 (E83F_D85T_T105E_V106I_L106AK) (Fab, V domains shown)
VH: QVQLQESGGGLVKPGGSLRLSCAASGFTFSSYWMSWVRQAPGKGLEWVANINRDGSASYYVDSVKGRFTISRDDAKNSLYLQMNSLRAEDTAVYYCARDRGVGYFDLWGRGTLVTVSS
VL: QSALTQPASVSGSPGQSITISCTGTSSDVGGYNFVSWYQQHPGKAPKLMIYDVSDRPSGVSDRFSGSKSGNTASLIISGLQADDFATYYCSSYGSSSTHVIFGGGTKVEIKR
Regarding B15, the Kd turned out to be 80.5 nM.

B16: H3 designed Vlambda-Ckappa chimeric Fab, design 27 (E83V_D85T_T105E) (Fab, name in Kabat numbering, V domains shown)
VH: QVQLQESGGGLVKPGGSLRLSCAASGFTFSSYWMSWVRQAPGKGLEWVANINRDGSASYYVDSVKGRFTISRDDAKNSLYLQMNSLRAEDTAVYYCARDRGVGYFDLWGRGTLVTVSS
VL: QSALTQPASVSGSPGQSITISCTGTSSDVGGYNFVSWYQQHPGKAPKLMIYDVSDRPSGVSDRFSGSKSGNTASLIISGLQADDVATYYCSSYGSSSTHVIFGGGTKVEVLR
For B16, the dissociation constant (Kd) is 84.1 nM.

B17: H3 designed Vlambda-Ckappa chimeric Fab, design 33 (E83I_D85T_T105E) (Fab, name in Kabat numbering, V domains shown)
VH: QVQLQESGGGLVKPGGSLRLSCAASGFTFSSYWMSWVRQAPGKGLEWVANINRDGSASYYVDSVKGRFTISRDDAKNSLYLQMNSLRAEDTAVYYCARDRGVGYFDLWGRGTLVTVSS
VL: QSALTQPASVSGSPGQSITISCTGTSSDVGGYNFVSWYQQHPGKAPKLMIYDVSDRPSGVSDRFSGSKSGNTASLIISGLQADDIATYYCSSYGSSSTHVIFGGGTKVEVLR
As to B17, the Kd turned out to be 89 nM.

B18: H3 designed Vlambda-Ckappa chimeric Fab, design 15 (E83F_T105E) (Fab, name in Kabat numbering, V domains shown)
VH: QVQLQESGGGLVKPGGSLRLSCAASGFTFSSYWMSWVRQAPGKGLEWVANINRDGSASYYVDSVKGRFTISRDDAKNSLYLQMNSLRAEDTAVYYCARDRGVGYFDLWGRGTLVTVSS
VL: QSALTQPASVSGSPGQSITISCTGTSSDVGGYNFVSWYQQHPGKAPKLMIYDVSDRPSGVSDRFSGSKSGNTASLIISGLQADDFADYYCSSYGSSSTHVIFGGGTKVEVLR
Turning to B18, the Kd turned out to be 90.8 nM.

B19: H3 designed Vlambda-Ckappa chimeric Fab, design 28 (E83V_D85V_T105E) (Fab, name in Kabat numbering, V domains shown)
VH: QVQLQESGGGLVKPGGSLRLSCAASGFTFSSYWMSWVRQAPGKGLEWVANINRDGSASYYVDSVKGRFTISRDDAKNSLYLQMNSLRAEDTAVYYCARDRGVGYFDLWGRGTLVTVSS
VL: QSALTQPASVSGSPGQSITISCTGTSSDVGGYNFVSWYQQHPGKAPKLMIYDVSDRPSGVSDRFSGSKSGNTASLIISGLQADDVAVYYCSSYGSSSTHVIFGGGTKVEVLR
B19: the Kd turned out to be 89.2 nM.

B20: H3 designed Vlambda-Ckappa chimeric Fab, design 23 (E83V) (Fab, name in Kabat numbering, V domains shown)
VH: QVQLQESGGGLVKPGGSLRLSCAASGFTFSSYWMSWVRQAPGKGLEWVANINRDGSASYYVDSVKGRFTISRDDAKNSLYLQMNSLRAEDTAVYYCARDRGVGYFDLWGRGTLVTVSS
VL: QSALTQPASVSGSPGQSITISCTGTSSDVGGYNFVSWYQQHPGKAPKLMIYDVSDRPSGVSDRFSGSKSGNTASLIISGLQADDVADYYCSSYGSSSTHVIFGGGTKVTVLR
Turning to B20, the Kd was found to be 95.7 nM.

B21: H3 designed Vlambda-Ckappa chimeric Fab, design 29 (E83V_D85T_T105E_V106I) (Fab, name in Kabat numbering, V domains shown)
VH: QVQLQESGGGLVKPGGSLRLSCAASGFTFSSYWMSWVRQAPGKGLEWVANINRDGSASYYVDSVKGRFTISRDDAKNSLYLQMNSLRAEDTAVYYCARDRGVGYFDLWGRGTLVTVSS
VL: QSALTQPASVSGSPGQSITISCTGTSSDVGGYNFVSWYQQHPGKAPKLMIYDVSDRPSGVSDRFSGSKSGNTASLIISGLQADDVATYYCSSYGSSSTHVIFGGGTKVEILR
B21: the Kd was 77 nM.

One may read the Kd as the free concentration of one partner at which half of the binding sites on the other are occupied at equilibrium, for simple one-to-one binding.
